B1: FBF1 (parent)
chain: LQRASILDMRRDHEEQLQRLKLLK

Variants of: B1
Assay: protein stability index of a GFP-peptide fusion (GPS, HEK-293T) (PSI 1-6); higher = more stable
Details: c terminus: a fixed tail appended
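Note: lentivirally expressed fusions sorted by FACS into six bins by GFP to DsRed ratio, PSI derived from sequencing read proportions per bin multiplied by bin number.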

Protein stability index, by site and new letter:
D12: E 3.93, I 3.2, K 3.15, R 3.05, P 3.38, F 2.74, C 2.51
R11: P 3.67, L 3.44, T 3.86, N 3.1, V 3.18
M9: R 3.72, Y 3.61, W 3.04, F 3.22, V 3.61, P 3.93, A 3.84, D 3.4, S 3.49, C 2.25
Q2: N 3.85, R 3.27, H 3.35, G 3.79, D 3.94, T 3.54, A 3.28, S 3.15, M 3.28, E 3.44, P 3.95
K24: S 2.82, V 1.92, M 4.03
E14: W 2.69, H 3.13, Q 3.49, Y 3.04, R 2.98
I6: T 3.66, R 3.46, K 3.7, A 4.03, W 3.62, Y 3.58
R19: M 3.03, P 3.75, Y 2.72, Q 3.33, S 3.48, G 3.75, T 2.85, I 2.11
L7: T 3.38, P 3.98, N 3.99, Q 3.65, I 3.09
L1: Y 2.35, I 4.12, R 3.3, E 4.42, D 4.73, M 3.45, N 3.64, Q 3.69
D8: L 2.19, N 3.48, W 2.5, F 2.56
Q16: K 3.61, W 2.97, R 2.77, T 3.45, D 4.02, M 1.38, P 3.51
R3: G 4.21, K 3.74, E 4.12, Y 3.4, L 2.92, N 3.93, A 3.86, I 2.23
E15: T 3.39, N 2.91, W 2.29, S 2.96, L 2.56, G 3.56, D 3.34, K 3.04, R 3.22
S5: M 3.03, K 3.21, N 3.65, Y 2.26, H 2.86, I 2.34, Q 3.85
H13: M 3.13, W 2.38, L 2.36, I 2.54, F 3.17, G 3.25, V 2.46, C 2.2, Q 3.4, P 3.33
K21: N 3.57, C 2.65, T 3.38, S 3.21, M 3.55, R 3.28, Q 3.18, Y 2.98
A4: C 2.97, E 4.02, R 3.83
L17: A 3.9, F 3.17, S 3.77, H 4, V 3.87, C 3.55, N 3.91
Q18: R 3.37, G 3.79, L 2.92, W 2.45
L23: H 4.26, Y 3.12, D 4.62, N 4.54, S 4.42, C 4.09, W 3, G 3.94
L22: I 3.77, F 3.5, Q 4.27, V 3.92, K 3.74, A 3.18, Y 3.15, M 3.44
L20: D 4.45, H 3.96, V 3.79, A 3.79, Y 3.83, N 4.22, W 2.78
R10: E 3.35, G 3.79, W 3.06, F 2.36, V 3.33, P 3.53, I 2.96, K 3.97, N 3.91

Reference: the supplement of paper PMC10567573
